Among the data in patent EP2325637A1 are colocalisation (confocal microscopy, HeLa cells) values, retold here.

The target of the assay is GFP-tagged Rab11a (UniProt P62491). The experiment in a line: cell-based or functional assay.
Chain of UniProt P62491 (P62491 whole entry): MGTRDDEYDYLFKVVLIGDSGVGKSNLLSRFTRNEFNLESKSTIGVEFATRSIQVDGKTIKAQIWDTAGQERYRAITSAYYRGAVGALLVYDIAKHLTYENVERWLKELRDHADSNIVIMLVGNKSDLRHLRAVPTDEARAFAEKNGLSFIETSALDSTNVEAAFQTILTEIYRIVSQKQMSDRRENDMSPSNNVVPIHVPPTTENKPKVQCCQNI

With “mCherry-MyoVa(1100-1853) fusion protein (from UniProt Q9Y4I1 1100-1828)”, the colocalisation (confocal microscopy, HeLa cells) came out at 100%.
